Values quoted from earlier work as cited in article PMC2921697.

What was measured:
[1] = target: Barnase (denatured) (Bacillus amyloliquefaciens) (UniProt P00648); assay: H/D exchange NMR
[2] = target: prion protein (denatured recombinant) (UniProt P04156)

Substance | Kd [1] [nM] | Kd [2] [nM]
GroEL (from UniProt P0A6F5) | 50 | –
SecB (from UniProt P0AG86) | 50 | –
Hsp60 (from UniProt P10809) | – | 1.5
